Patent US20080267971A1 (published 2008)

B1: human Angiopoietin-1 (ligand)
chain: SNQRRSPENSGRRYNRIQHGQCAYTFILPEHDGNCRESTTDQYNTNALQRDAPHVEPDFSSQKLQHLEHVMENYTQWLQKLENYIVENMKSEMAQIQQNAVQNHTATMLEIGTSLLSQTAEQTRKLTDVETQVLNQTSRLEIQLLENSLSTYKLEKQLLQQTNEILKIHEKNSLLEHKILEMEGKHKEELDTLKEEKENLQGLVTRQTYIIQELEKQLNRATTNNSVLQKQQLELMDTVHNLVNLCTKEVLLKGGKREEEKPFRDCADVYQAGFNKSGIYTIYINNMPEPKKVFCNMDVNGGGWTVIQHREDGSLDFQRGWKEYKMGFGNPSGEYWLGNEFIFAITSQRQYMLRIELMDWEGNRAYSQYDRFHIGNEKQNYRLYLKGHTGTAGKQSSLILHGADFSTKDADNDNCMCKCALMLTGGWWFDACGPSNLNGMFYTAGQNHGKLNGIKWHYFKGPSYSLRSTTMMIRPLDF
notes: Bought recombinant protein (R&D Systems 293-AN-025/CF) or supernatant of transfected 293F cells; also called Ang-1; recombinant Ang-1

Tests used:
[1] = target: T1, recombinant human Tie2/Fc fusion protein (human, UniProt Q02763 23-745); assay: FACS competition: binding of His-tagged recombinant human Ang-1 to Tie2 on HEK293F/Tie2 transfectants, soluble Tie2/Fc titrated, n = 3
T1 construct: Bought fusion protein; also called hTie2/Fc; soluble Tie2/Fc
T1 sequence (Q02763 23-745 limits assumed): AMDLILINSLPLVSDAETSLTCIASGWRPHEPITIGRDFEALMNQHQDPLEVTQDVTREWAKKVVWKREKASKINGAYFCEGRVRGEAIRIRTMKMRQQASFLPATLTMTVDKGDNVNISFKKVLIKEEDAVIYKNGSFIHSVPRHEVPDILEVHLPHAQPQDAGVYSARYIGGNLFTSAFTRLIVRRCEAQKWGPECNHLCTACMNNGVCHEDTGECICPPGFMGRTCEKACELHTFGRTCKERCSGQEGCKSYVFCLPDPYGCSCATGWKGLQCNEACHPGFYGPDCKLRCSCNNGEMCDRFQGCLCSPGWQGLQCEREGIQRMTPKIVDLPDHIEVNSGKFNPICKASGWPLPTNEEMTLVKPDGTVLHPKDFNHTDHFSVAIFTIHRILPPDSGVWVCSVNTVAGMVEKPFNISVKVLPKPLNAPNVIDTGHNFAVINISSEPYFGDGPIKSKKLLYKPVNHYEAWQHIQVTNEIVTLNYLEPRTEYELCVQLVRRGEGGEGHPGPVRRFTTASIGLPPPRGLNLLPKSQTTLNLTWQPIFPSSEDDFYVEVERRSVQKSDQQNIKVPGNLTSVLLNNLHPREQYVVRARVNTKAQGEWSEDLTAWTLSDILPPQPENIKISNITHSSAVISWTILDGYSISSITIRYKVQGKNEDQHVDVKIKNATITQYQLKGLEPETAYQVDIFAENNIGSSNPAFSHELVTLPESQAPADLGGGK
Experimental: Cell suspension of 4 million cells/mL in FACS Buffer were prepared, and then aliquoted to a 96-well polypropylene plate with 50 ul per well. […] Cells were washed by centrifuging the plate at 1,200 rpm for 5 minutes, removing the supernatant by aspirating, and resuspending the cells with 200 ul per well of FACS Buffer. Washing procedures were repeated twice. The cells were then suspended with 100 ul of mouse Anti-6×-Histidine antibody diluted to 2 ug/ml in FACS Buffer, and incubated at room temperature for 30 minutes. After washing, the cells were suspended in 100 ul of PE-conjugated goat anti-mouse-IgG, which was diluted 1:100 in FACS Buffer, for incubation at room temperature for 30 minutes. The volume of the samples were brought to 300 ul with FACS Buffer, and measured with FACS Calibur.

human Ang-2443 = target: T2, human Ang-2443 (human, UniProt O15123 19-496); assay: ELISA
T2 construct: Splice variant missing amino acids 96-148; supernatant of transfected 293F cells
T2 sequence: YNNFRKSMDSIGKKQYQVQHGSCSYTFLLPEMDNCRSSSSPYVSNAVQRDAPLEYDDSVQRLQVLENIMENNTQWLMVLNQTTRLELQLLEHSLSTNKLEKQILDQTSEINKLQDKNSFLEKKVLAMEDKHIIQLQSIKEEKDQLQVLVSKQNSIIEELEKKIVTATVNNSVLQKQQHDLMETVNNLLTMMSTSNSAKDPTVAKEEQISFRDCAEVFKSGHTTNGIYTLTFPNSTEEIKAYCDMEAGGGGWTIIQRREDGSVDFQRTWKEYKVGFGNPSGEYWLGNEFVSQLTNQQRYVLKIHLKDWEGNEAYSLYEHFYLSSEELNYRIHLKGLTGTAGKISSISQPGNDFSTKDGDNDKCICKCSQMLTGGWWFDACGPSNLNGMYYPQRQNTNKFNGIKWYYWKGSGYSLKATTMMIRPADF

[2] = target: T3, Human Ang-1/2 BsmI chimeric molecule (human); assay: ELISA
T3 chain: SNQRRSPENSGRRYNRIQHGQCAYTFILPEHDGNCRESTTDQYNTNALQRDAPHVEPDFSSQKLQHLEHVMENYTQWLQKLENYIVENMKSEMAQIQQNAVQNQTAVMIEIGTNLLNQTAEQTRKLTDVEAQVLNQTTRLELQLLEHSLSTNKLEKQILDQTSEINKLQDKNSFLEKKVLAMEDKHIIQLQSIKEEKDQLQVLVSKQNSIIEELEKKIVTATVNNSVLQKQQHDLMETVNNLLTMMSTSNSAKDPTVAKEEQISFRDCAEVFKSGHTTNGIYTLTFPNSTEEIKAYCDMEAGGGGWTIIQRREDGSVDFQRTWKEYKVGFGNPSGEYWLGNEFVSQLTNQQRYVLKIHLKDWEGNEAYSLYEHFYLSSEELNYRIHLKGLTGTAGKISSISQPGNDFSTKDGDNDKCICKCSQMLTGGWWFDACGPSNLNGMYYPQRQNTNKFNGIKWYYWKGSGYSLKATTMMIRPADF

human Ang-2 V345M = target: T4, human Ang-2 V345M (human, UniProt O15123 19-496); assay: ELISA
T4 sequence: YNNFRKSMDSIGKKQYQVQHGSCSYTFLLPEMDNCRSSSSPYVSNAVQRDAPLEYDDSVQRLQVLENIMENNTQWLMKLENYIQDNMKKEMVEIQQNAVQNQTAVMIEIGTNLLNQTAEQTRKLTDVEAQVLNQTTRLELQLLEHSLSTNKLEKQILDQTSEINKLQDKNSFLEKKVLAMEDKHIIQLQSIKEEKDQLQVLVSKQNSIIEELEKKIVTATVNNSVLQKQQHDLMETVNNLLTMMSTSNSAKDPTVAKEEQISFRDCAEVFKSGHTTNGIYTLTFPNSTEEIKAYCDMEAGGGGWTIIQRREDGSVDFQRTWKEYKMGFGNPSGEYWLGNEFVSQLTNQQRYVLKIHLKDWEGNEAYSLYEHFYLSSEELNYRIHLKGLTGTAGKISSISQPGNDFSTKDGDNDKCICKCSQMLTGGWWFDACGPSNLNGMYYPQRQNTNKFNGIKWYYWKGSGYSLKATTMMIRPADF

human Ang-2 H375Q = target: T5, human Ang-2 H375Q (human, UniProt O15123 19-496); assay: ELISA
T5 sequence: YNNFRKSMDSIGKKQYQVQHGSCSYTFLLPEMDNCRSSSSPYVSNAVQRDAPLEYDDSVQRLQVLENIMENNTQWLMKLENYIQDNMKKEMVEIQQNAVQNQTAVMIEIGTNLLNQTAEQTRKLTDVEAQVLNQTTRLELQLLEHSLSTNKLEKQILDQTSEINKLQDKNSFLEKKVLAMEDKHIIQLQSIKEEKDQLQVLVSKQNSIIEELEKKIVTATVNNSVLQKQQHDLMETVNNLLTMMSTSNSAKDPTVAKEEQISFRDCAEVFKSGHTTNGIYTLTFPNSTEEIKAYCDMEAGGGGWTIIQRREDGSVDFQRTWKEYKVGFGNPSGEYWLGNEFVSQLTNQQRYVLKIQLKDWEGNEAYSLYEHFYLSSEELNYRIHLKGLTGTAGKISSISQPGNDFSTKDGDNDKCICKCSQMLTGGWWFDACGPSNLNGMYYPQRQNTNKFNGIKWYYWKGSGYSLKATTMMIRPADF

human Angiopoietin-1 = target: B1; assay: capture ELISA
Experimental: The binding of the top 27 human monoclonal antibodies was detected with a HRP-conjugated goat anti-human antibody, followed by colorimetric horseradish peroxidase substrate (Enhanced K-Blue TMB substrate Neogen Corporation). The absorbance of each well of the ELISA plates was measured at 450 nm on a microplate autoreader.

human Angiopoietin-2 [3] = target: T6, human Angiopoietin-2 (human, UniProt O15123 19-496); assay: Biacore, mAb captured
T6 construct: Mostly bought recombinant protein (R&D Systems 623-AM/CF, 623-AN; biotinylated BT623) or supernatant of transfected 293F cells; also called Ang-2; rhAng-2
T6 sequence: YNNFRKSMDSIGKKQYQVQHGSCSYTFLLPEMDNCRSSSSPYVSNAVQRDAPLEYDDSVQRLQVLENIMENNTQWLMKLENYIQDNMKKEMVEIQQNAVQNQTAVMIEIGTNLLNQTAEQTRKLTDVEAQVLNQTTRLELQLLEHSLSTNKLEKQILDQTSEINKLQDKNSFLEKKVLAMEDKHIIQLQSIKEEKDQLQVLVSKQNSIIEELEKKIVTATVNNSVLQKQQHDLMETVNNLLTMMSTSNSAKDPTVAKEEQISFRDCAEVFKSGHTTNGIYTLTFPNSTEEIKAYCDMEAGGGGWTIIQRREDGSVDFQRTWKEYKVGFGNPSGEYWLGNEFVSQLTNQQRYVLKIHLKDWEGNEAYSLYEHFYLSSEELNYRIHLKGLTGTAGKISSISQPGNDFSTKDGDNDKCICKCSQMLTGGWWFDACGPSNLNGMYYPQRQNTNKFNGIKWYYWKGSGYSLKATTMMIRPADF
Experimental: (§1) The label-free surface plasmon resonance (SPR), or Biacore, was utilized to measure the antibody affinity to the antigen. For this purpose, a high-density goat anti-human antibody surface over a CM5 Biacore chip was prepared using routine amine coupling. All the purified mAbs were diluted to approximately 8 μg/ml in HBS-P running buffer containing 100 μg/ml BSA and 10 mg/mL carboxymethyldextran. Each mAb was captured on a separate surface using a 42-second contact time, and a 5-minute wash for stabilization of the mAb baseline.
(§2) Data were fit globally to a 1:1 interaction model to determine the binding kinetics.

human Angiopoietin-2 [4] = target: T6, human Angiopoietin-2; assay: Biacore; kd held constant (*)
Experimental: as §1, §2

human Angiopoietin-2 [5] = target: T6, human Angiopoietin-2; assay: inhibition of rhAng-2 binding to its receptor
mouse Angiopoietin-2 = target: T7, mouse Angiopoietin-2 (mouse, UniProt O35608 19-496); assay: ELISA, recombinant mouse Ang-2
T7 construct: Used as conditioned medium of transfectants; also called mAng-2; mouse Ang-2
T7 sequence: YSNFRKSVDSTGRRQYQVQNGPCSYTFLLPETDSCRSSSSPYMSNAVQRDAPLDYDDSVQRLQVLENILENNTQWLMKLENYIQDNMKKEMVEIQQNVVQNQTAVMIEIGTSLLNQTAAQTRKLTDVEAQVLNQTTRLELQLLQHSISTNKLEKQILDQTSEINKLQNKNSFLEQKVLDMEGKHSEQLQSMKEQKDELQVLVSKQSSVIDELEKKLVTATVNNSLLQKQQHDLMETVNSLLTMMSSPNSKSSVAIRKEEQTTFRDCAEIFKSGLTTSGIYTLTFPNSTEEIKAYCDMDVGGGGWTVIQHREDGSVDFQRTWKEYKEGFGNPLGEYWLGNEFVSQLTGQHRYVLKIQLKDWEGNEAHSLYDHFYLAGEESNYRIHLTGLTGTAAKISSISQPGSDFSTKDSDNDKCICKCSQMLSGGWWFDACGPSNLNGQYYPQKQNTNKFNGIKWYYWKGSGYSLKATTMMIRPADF

Does B1 bind [1]?
Result: binds

B2: mAb 6.3.1 (antibody, V domains shown)
VH: QVQLVQSGAEVKKPGASVKVSCKASGYTFTGYFMHWVPQAPGQGLEWMGWINPNSGGTNYAQNFQGRVTMTRDTSISTAYMELSRLRSDDTPVYYCARDPWQNWNSYFDYWGQGTLVTVSS
VL: DIQMTQSPSSLSASVGDRVTITCRASQSIRSYLNWYQQKPGKAPKVLIYAASSLQSGVPSRFSGSGSGTDFTLTISSLQPEDFATYYCQQSYSTLCSFGQGTKLEIKR
notes: Human hybridoma IgG (XenoMouse); also called x6.3
B2 was tested. Which “% of binding to human Ang-2” value (human Ang-2443) did it give?
The value was 100%.

And the “% of binding to human Ang-2” value [2]?
Its value is 100%.

What about the “% of binding to human Ang-2” value (human Ang-2 V345M) of the same binder?
Its value is 100%.

What about the “% of binding to human Ang-2” value (human Ang-2 H375Q) of the same binder?
The value was 100%.

Does B2 bind (human Angiopoietin-1)?
Result: no binding

And the Kd (human Angiopoietin-2 [3])?
The Kd was ≤ 0.073 nM.

And the kon (human Angiopoietin-2 [3])?
The kon was 140000 M⁻¹ s⁻¹.

What about the koff (human Angiopoietin-2 [4]) of the same binder?
The koff was ≤ 1e-05 s⁻¹.

What about the “OD650 in inhibition assay” value (human Angiopoietin-2 [5]) of the same binder?
The value was 0.0617 OD650.

B3: mAb 5.41.1 (antibody, V domains shown)
VH: EVQLVESGGGLVQPGGSLRLSCAASGFTFSSYWMSWVRQAPGKGLEWVANIKEDGSEKYYVDSVKGRFTISRDNAKNSLYLQMNSLRAEDTAVFYCARDRSSGFFDYWGQGTLVTVSS
VL: EIVMTQSPATLSVSPGERATLSCRASQSVSSNLAWYQQKPGQAPRFLIYGASTRATGIPARFSGSGSGTEFTLTISSLQSEDFAVYYCQQYNHWWTFGQGTKVEIKR
notes: Human hybridoma IgG (XenoMouse); also called x5.41
Which results are given for B3?
binding result (human Angiopoietin-1): no binding; binding result (mouse Angiopoietin-2): no binding

B4: mAb 5.16.3 (antibody, V domains shown)
VH: QVQLVQSGAEVKKPGASVKVSCKASGYTFTGFYMYWVRQAPGQGLEWMGWINPNSSGTNHAQKFQGRVTMTRDTSISTAYMELSRLRSDDTAVYYCARDQDIATAGPFDYWGQGTLVTVSS
VL: EIVMTQSPATLSVSPGERATLSCRASQSVSSNLAWYQQKPGQAPRLLIFGASTRATGIPARFSGSGSGTEFTLTISSLQSEDFAVYYCQQYNNWWTFGRGTKVEIKR
notes: Human hybridoma IgG (XenoMouse); also called x5.16
Does B4 bind (human Angiopoietin-1)?
Result: no binding

Does B4 bind (mouse Angiopoietin-2)?
Result: no binding
